We go through two variants from FireProtDB (doi:10.1021/bi00231a002).

First the molecules themselves.
B1: Cytochrome c2, P00094 (parent)
chain: MKISLTAATVAALVLAAPAFAGDAAKGEKEFNKCKTCHSIIAPDGTEIVKGAKTGPNLYGVVGRTAGTYPEFKYKDSIVALGASGFAWTEEDIATYVKDPGAFLKEKLDDKKAKTGMAFKLAKGGEDVAAYLASVVK

In this series the parent is B1. The conditions noted are these: Rhodobacter capsulatus (strain ATCC BAA-309 / NBRC 16581 / SB1003); pH 7.5; 20 °C; GdnHCl; CD; Tris-HCl 20 mM; NaCl 40 mM; structure 1C2R; whole UniProt chain shown.

Several values for one entry are separate records, joined by “and”; a condition that tells them apart may be missing. Equal values may be shown once.

With MKISLTAATVAALVLAAPAFAGDAAKGEKEFNKCKTCHSIIAPDGTEIVKGAKTGPNLYGVVGRTAGTYPEFKYKDSIVALGASGFAWTEEDIATFVKDPGAFLKEKLDDKKAKTGMAFKLAKGGEDVAAYLASVVK [Y96F], the denaturant m value is 2.59 kcal/mol/M and 1.43 kcal/mol/M; the “denaturant midpoint (higher = more stable)” value was 1.71 M and 3.32 M; the unfolding free energy was 4.42 kcal/mol and 4.75 kcal/mol.
As for MKISLTAATVAALVLAAPAFAGDAAKGEKEFNKCKTCHSIIAPDGTEIVKGAKTGPNLYGVVGRTAGTYPEFKYKDSIVALGASGFAWTEEDIATCVKDPGAFLKEKLDDKKAKTGMAFKLAKGGEDVAAYLASVVK [Y96C], the denaturant m value is 2.57 kcal/mol/M and 1.96 kcal/mol/M; the “denaturant midpoint (higher = more stable)” value was 1.44 M and 2.24 M; the unfolding free energy was 3.71 kcal/mol and 4.4 kcal/mol.
